Measured values published in publication PMC8391708, “Anti-Inflammatory Effects of C1q/Tumor Necrosis Factor-Related Protein 3 (CTRP3) in Endothelial Cells” (Cells, 2021).

Molecular target: the molecule itself
Assay: SDS-PAGE; recombinant CTRP3 run on SDS-polyacrylamide gels, stained with Coomassie; band at <100 kDa read as a trimer

B1: C1q/TNF-related protein 3 (CTRP3), recombinant (natural protein, human, UniProt Q9BXJ4 23-246, looked up)
chain: QDEYMESPQTGGLPPDCSKCCHGDYSFRGYQGPPGPPGPPGIPGNHGNNGNNGATGHEGAKGEKGDKGDLGPRGERGQHGPKGEKGYPGIPPELQIAFMASLATHFSNQNSGIIFSSVETNIGNFFDVMTGRFGAPVSGVYFFTFSMMKHEDVEEVYVYLMHNGNTVFSMYSYEMKGKSDTSSNHAVLKLAKGDEVWLRMGNGALHGDHQRFSTFAGFLLFETK
notes: C1q/TNF-related protein 3 (CTRP3), human, recombinant; also called C1q/Tumor Necrosis Factor-Related Protein 3; recombinant human CTRP3; source: baculovirus expression system in insect H5 cells
- stoichiometry N: 3
